Results as given in PMC4596520.

Columns and labels:
Assay in all cases: SPR
Details in all cases: read off a plot
[1] = target: hexa-His-tagged recombinant soluble human Fcγ receptor IIa, 134R (UniProt P12318)
[2] = target: hexa-His-tagged recombinant soluble human Fcγ receptor I (UniProt P12314)
[3] = target: hexa-His-tagged recombinant soluble human Fcγ receptor IIIa, 158F (UniProt P08637)
Chain of UniProt P08637 (P08637 17-208): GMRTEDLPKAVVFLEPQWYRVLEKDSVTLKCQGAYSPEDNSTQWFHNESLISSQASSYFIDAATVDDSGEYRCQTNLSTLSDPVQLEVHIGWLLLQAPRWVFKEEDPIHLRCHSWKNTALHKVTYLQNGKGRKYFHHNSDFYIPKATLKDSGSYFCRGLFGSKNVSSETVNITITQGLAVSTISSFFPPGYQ

Chain of UniProt P12314 (P12314 16-292): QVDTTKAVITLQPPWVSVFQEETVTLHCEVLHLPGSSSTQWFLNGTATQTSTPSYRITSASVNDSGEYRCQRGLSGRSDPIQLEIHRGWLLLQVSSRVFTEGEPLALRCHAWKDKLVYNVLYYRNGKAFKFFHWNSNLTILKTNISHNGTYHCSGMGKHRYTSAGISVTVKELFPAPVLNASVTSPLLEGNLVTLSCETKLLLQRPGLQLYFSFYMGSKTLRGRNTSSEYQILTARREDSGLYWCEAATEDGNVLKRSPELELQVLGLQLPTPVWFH
Chain of UniProt P12318 (P12318 34-217 H167R): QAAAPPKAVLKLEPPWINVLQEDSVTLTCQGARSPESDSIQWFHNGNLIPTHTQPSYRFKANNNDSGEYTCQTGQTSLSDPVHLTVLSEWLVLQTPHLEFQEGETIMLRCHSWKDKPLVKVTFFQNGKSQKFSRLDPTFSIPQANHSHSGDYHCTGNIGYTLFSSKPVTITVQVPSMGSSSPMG

Kd ([1]; parent: est. 18) | Kd ([2]; parent: est. 11) | Kd ([3]; parent: est. 17) | Kd ([1]; parent: est. 12) | Kd ([2]; parent: est. 2.3) | Kd ([3]; parent: est. 5.0) | Substance
10 ×10^-7 M | 9.8 ×10^-8 M | 17 ×10^-7 M |  |  |  | fucosylated anti-CD20 chimeric IgG1 rituximab with a wild-type Fc region Y296C
12 ×10^-7 M | 11 ×10^-8 M | 17 ×10^-7 M |  |  |  | fucosylated anti-CD20 chimeric IgG1 rituximab with a wild-type Fc region Y296D
11 ×10^-7 M | 12 ×10^-8 M | 20 ×10^-7 M |  |  |  | fucosylated anti-CD20 chimeric IgG1 rituximab with a wild-type Fc region Y296E
9.5 ×10^-7 M | 11 ×10^-8 M | 21 ×10^-7 M |  |  |  | fucosylated anti-CD20 chimeric IgG1 rituximab with a wild-type Fc region Y296F
13 ×10^-7 M | 14 ×10^-8 M | 56 ×10^-7 M |  |  |  | fucosylated anti-CD20 chimeric IgG1 rituximab with a wild-type Fc region Y296G
11 ×10^-7 M | 11 ×10^-8 M |  |  |  |  | fucosylated anti-CD20 chimeric IgG1 rituximab with a wild-type Fc region Y296H
12 ×10^-7 M | 10 ×10^-8 M |  |  |  |  | fucosylated anti-CD20 chimeric IgG1 rituximab with a wild-type Fc region Y296I
9 ×10^-7 M | 11 ×10^-8 M |  |  |  |  | fucosylated anti-CD20 chimeric IgG1 rituximab with a wild-type Fc region Y296L
13 ×10^-7 M | 10 ×10^-8 M |  |  |  |  | fucosylated anti-CD20 chimeric IgG1 rituximab with a wild-type Fc region Y296M
12 ×10^-7 M | 10 ×10^-8 M |  |  |  |  | fucosylated anti-CD20 chimeric IgG1 rituximab with a wild-type Fc region Y296N
 | 18 ×10^-8 M |  |  |  |  | fucosylated anti-CD20 chimeric IgG1 rituximab with a wild-type Fc region Y296P
11 ×10^-7 M | 9.6 ×10^-8 M | 27 ×10^-7 M |  |  |  | fucosylated anti-CD20 chimeric IgG1 rituximab with a wild-type Fc region Y296Q
12 ×10^-7 M | 10 ×10^-8 M | 41 ×10^-7 M |  |  |  | fucosylated anti-CD20 chimeric IgG1 rituximab with a wild-type Fc region Y296R
13 ×10^-7 M | 10 ×10^-8 M | 30 ×10^-7 M |  |  |  | fucosylated anti-CD20 chimeric IgG1 rituximab with a wild-type Fc region Y296S
12 ×10^-7 M | 12 ×10^-8 M | 32 ×10^-7 M |  |  |  | fucosylated anti-CD20 chimeric IgG1 rituximab with a wild-type Fc region Y296T
14 ×10^-7 M | 10 ×10^-8 M |  |  |  |  | fucosylated anti-CD20 chimeric IgG1 rituximab with a wild-type Fc region Y296V

Kd ([1]; parent: est. 18) | Kd ([2]; parent: est. 11) | Kd ([3]; parent: est. 17) | Kd ([1]; parent: est. 12) | Kd ([2]; parent: est. 2.3) | Kd ([3]; parent: est. 5.0) | Substance
 |  |  | 8 ×10^-7 M | 3.3 ×10^-8 M | 6.5 ×10^-7 M | nonfucosylated anti-CD20 chimeric IgG1 rituximab with a wild-type Fc region Y296C
 |  |  | 9.5 ×10^-7 M | 2.7 ×10^-8 M | 6 ×10^-7 M | nonfucosylated anti-CD20 chimeric IgG1 rituximab with a wild-type Fc region Y296D
 |  |  |  | 2.7 ×10^-8 M | 9 ×10^-7 M | nonfucosylated anti-CD20 chimeric IgG1 rituximab with a wild-type Fc region Y296E
 |  |  | 9.8 ×10^-7 M | 2.6 ×10^-8 M | 6 ×10^-7 M | nonfucosylated anti-CD20 chimeric IgG1 rituximab with a wild-type Fc region Y296F
 |  |  | 7.5 ×10^-7 M | 3 ×10^-8 M | 6.5 ×10^-7 M | nonfucosylated anti-CD20 chimeric IgG1 rituximab with a wild-type Fc region Y296H
 |  |  | 10 ×10^-7 M | 3.2 ×10^-8 M | 9.5 ×10^-7 M | nonfucosylated anti-CD20 chimeric IgG1 rituximab with a wild-type Fc region Y296I
 |  |  | 11 ×10^-7 M | 2.8 ×10^-8 M | 10 ×10^-7 M | nonfucosylated anti-CD20 chimeric IgG1 rituximab with a wild-type Fc region Y296L
 |  |  | 11 ×10^-7 M | 3.2 ×10^-8 M | 9.5 ×10^-7 M | nonfucosylated anti-CD20 chimeric IgG1 rituximab with a wild-type Fc region Y296M
 |  |  | 11 ×10^-7 M | 3.2 ×10^-8 M | 8 ×10^-7 M | nonfucosylated anti-CD20 chimeric IgG1 rituximab with a wild-type Fc region Y296N
 |  |  |  | 7.4 ×10^-8 M |  | nonfucosylated anti-CD20 chimeric IgG1 rituximab with a wild-type Fc region Y296P
 |  |  | 11 ×10^-7 M | 3.2 ×10^-8 M | 10 ×10^-7 M | nonfucosylated anti-CD20 chimeric IgG1 rituximab with a wild-type Fc region Y296Q
 |  |  | 10 ×10^-7 M | 3.3 ×10^-8 M |  | nonfucosylated anti-CD20 chimeric IgG1 rituximab with a wild-type Fc region Y296R
 |  |  | 9.2 ×10^-7 M | 3.4 ×10^-8 M | 11 ×10^-7 M | nonfucosylated anti-CD20 chimeric IgG1 rituximab with a wild-type Fc region Y296S
 |  |  | 9.6 ×10^-7 M | 3 ×10^-8 M | 10 ×10^-7 M | nonfucosylated anti-CD20 chimeric IgG1 rituximab with a wild-type Fc region Y296T
 |  |  | 11 ×10^-7 M | 3 ×10^-8 M | 9 ×10^-7 M | nonfucosylated anti-CD20 chimeric IgG1 rituximab with a wild-type Fc region Y296V
